Results: PMC11417369, “DNA sequence and chromatin differentiate sequence-specific transcription factor binding in the human malaria parasite Plasmodium falciparum”

T1: PF3D7_0420300 D1 (Plasmodium falciparum, UniProt Q8I1N6 1956-2015)
T1 sequence: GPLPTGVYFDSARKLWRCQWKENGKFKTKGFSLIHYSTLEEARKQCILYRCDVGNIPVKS


biological target: T1, PF3D7_0420300 D1; assay: gcPBM; about 25 ug protein; PBS, 1% milk, 0.2 mg/ml BSA, salmon testes DNA, 0.03% Triton X-100; details: tags: N-terminal GST (pGEX-4T-1), kept; label: surface-attached array probe

Row | Binder | binding signal
1 | CACACA_site2478 (dsDNA) DNA 1: TAAACAGACATATAAACACACATATAAACCGACATA DNA 2: TATGTCGGTTTATATGTGTGTTTATATGTCTGTTTA | 9.92 ln median PBM intensity, better of two orientations
2 | CACACA_site2985 (dsDNA) DNA 1: AATATTTATAAAGACACACAAACAAAAAGGATAAAA DNA 2: TTTTATCCTTTTTGTTTGTGTGTCTTTATAAATATT | 9.84 ln median PBM intensity, better of two orientations
3 | CACACA_site1962 (dsDNA) DNA 1: TTTTTAACATATCATACACACAACAACTTTTTATAG DNA 2: CTATAAAAAGTTGTTGTGTGTATGATATGTTAAAAA | 9.54 ln median PBM intensity, better of two orientations
4 | CACACA_site4786 (dsDNA) DNA 1: AATATACACCCGTGTACACAAATATTTACAAAACGT DNA 2: ACGTTTTGTAAATATTTGTGTACACGGGTGTATATT | 9.51 ln median PBM intensity, better of two orientations
5 | CACACA_site2379 (dsDNA) DNA 1: ACATAGCAATGTTTCACACACAAGAAAAAATACAAT DNA 2: ATTGTATTTTTTCTTGTGTGTGAAACATTGCTATGT | 9.85 ln median PBM intensity, better of two orientations
6 | CACACA_site2604 (dsDNA) DNA 1: GAAAATATTACATACACGCACACATTAATATATTTA DNA 2: TAAATATATTAATGTGTGCGTGTATGTAATATTTTC | 9.59 ln median PBM intensity, better of two orientations
7 | CACACA_site55 (dsDNA) DNA 1: CTCAATATTATTACTACACACAAATTAATATTTTCC DNA 2: GGAAAATATTAATTTGTGTGTAGTAATAATATTGAG | 9.54 ln median PBM intensity, better of two orientations
8 | CACACA_site8191 (dsDNA) DNA 1: TATTATATTATACATACACACCCATATAATATGTTT DNA 2: AAACATATTATATGGGTGTGTATGTATAATATAATA | 9.49 ln median PBM intensity, better of two orientations
9 | CACACA_site4960 (dsDNA) DNA 1: TTAATAACAAAATAAACACACATATATAAATACCCA DNA 2: TGGGTATTTATATATGTGTGTTTATTTTGTTATTAA | 9.9 ln median PBM intensity, better of two orientations
10 | CACACA_site8016 (dsDNA) DNA 1: TTAGGTAGAAAAAAGACACACACATTATATATATAT DNA 2: ATATATATATAATGTGTGTGTCTTTTTTCTACCTAA | 9.94 ln median PBM intensity, better of two orientations
11 | CACACA_site337 (dsDNA) DNA 1: AGCAGACACCAACACACACACATATATATATATATA DNA 2: TATATATATATATATGTGTGTGTGTTGGTGTCTGCT | 9.86 ln median PBM intensity, better of two orientations
12 | CACACA_site407 (dsDNA) DNA 1: ATATTATATTATATAACACACATTTTTCATAACACT DNA 2: AGTGTTATGAAAAATGTGTGTTATATAATATAATAT | 9.58 ln median PBM intensity, better of two orientations
13 | CACACA_site8829 (dsDNA) DNA 1: TATGTAAAAAATTTAACACACACATATATATATATA DNA 2: TATATATATATATGTGTGTGTTAAATTTTTTACATA | 9.57 ln median PBM intensity, better of two orientations
14 | CACACA_site7314 (dsDNA) DNA 1: CAATGTTAACATATTACACACATATGTATTTATAAC DNA 2: GTTATAAATACATATGTGTGTAATATGTTAACATTG | 9.55 ln median PBM intensity, better of two orientations
15 | CACACA_site1453 (dsDNA) DNA 1: ATATTATGTGATTGTGCACACTGGAGATTTTTTTTA DNA 2: TAAAAAAAATCTCCAGTGTGCACAATCACATAATAT | 9.58 ln median PBM intensity, better of two orientations
16 | CACACA_site7096 (dsDNA) DNA 1: TACCTATATACATACACACACATATAACCAATGTAG DNA 2: CTACATTGGTTATATGTGTGTGTATGTATATAGGTA | 9.88 ln median PBM intensity, better of two orientations
17 | CACACA_site8689 (dsDNA) DNA 1: AAAAAAAAAACACGCGCACACACACCCACCCACCCA DNA 2: TGGGTGGGTGGGTGTGTGTGCGCGTGTTTTTTTTTT | 10.7 ln median PBM intensity, better of two orientations
18 | CACACA_site3328 (dsDNA) DNA 1: TGTATTTATAGCAATACACACATAACAATAAATATA DNA 2: TATATTTATTGTTATGTGTGTATTGCTATAAATACA | 9.56 ln median PBM intensity, better of two orientations
19 | CACACA_site6268 (dsDNA) DNA 1: AACATATTTATATACACACACATATTTATATGAAAT DNA 2: ATTTCATATAAATATGTGTGTGTATATAAATATGTT | 9.85 ln median PBM intensity, better of two orientations
20 | CACACA_site377 (dsDNA) DNA 1: AGGTAGAAAAAAGACACACACATTATGTATATATAT DNA 2: ATATATATACATAATGTGTGTGTCTTTTTTCTACCT | 9.87 ln median PBM intensity, better of two orientations
21 | CACACA_site8576 (dsDNA) DNA 1: TTCTTACATAAAATATCACACACATAAAAAAACAAT DNA 2: ATTGTTTTTTTATGTGTGTGATATTTTATGTAAGAA | 9.93 ln median PBM intensity, better of two orientations
22 | CACACA_site3334 (dsDNA) DNA 1: ATTTTATTTTTTCACACACACATATATATATATATA DNA 2: TATATATATATATATGTGTGTGTGAAAAAATAAAAT | 9.91 ln median PBM intensity, better of two orientations

Row | Binder | binding signal
23 | CACACA_site3513 (dsDNA) DNA 1: CAATTACGCAGGAATGCACACAATAATAAAAAAAAT DNA 2: ATTTTTTTTATTATTGTGTGCATTCCTGCGTAATTG | 9.51 ln median PBM intensity, better of two orientations
24 | CACACA_site5943 (dsDNA) DNA 1: AAATAAATATATAATACACACAAAAATATAAAATGG DNA 2: CCATTTTATATTTTTGTGTGTATTATATATTTATTT | 9.84 ln median PBM intensity, better of two orientations
25 | CACACA_site7392 (dsDNA) DNA 1: GGTTCATATCTTAACACACACATACATATTATAGAT DNA 2: ATCTATAATATGTATGTGTGTGTTAAGATATGAACC | 9.92 ln median PBM intensity, better of two orientations
26 | CACACA_site6753 (dsDNA) DNA 1: GAAGTAATTTCATATACACACATATACATACATACA DNA 2: TGTATGTATGTATATGTGTGTATATGAAATTACTTC | 9.62 ln median PBM intensity, better of two orientations
27 | CACACA_site8579 (dsDNA) DNA 1: AATATTTATAAATTTACACACACACCGGTGAACATA DNA 2: TATGTTCACCGGTGTGTGTGTAAATTTATAAATATT | 9.89 ln median PBM intensity, better of two orientations
28 | CACACA_site1730 (dsDNA) DNA 1: AAAATTTTTTACTTTACACACATTTTGTATATTTTG DNA 2: CAAAATATACAAAATGTGTGTAAAGTAAAAAATTTT | 9.87 ln median PBM intensity, better of two orientations
29 | CACACA_site5414 (dsDNA) DNA 1: AACAAGTTGCATGGTGCACACATGTATTTATATCTA DNA 2: TAGATATAAATACATGTGTGCACCATGCAACTTGTT | 9.53 ln median PBM intensity, better of two orientations
30 | CACACA_site2544 (dsDNA) DNA 1: TATTATTTATTATATGCACACATCGAACTATTATTT DNA 2: AAATAATAGTTCGATGTGTGCATATAATAAATAATA | 9.56 ln median PBM intensity, better of two orientations
31 | CACACA_site1517 (dsDNA) DNA 1: TATGAAATTATAATTACACACAGGAAAATAAAATGT DNA 2: ACATTTTATTTTCCTGTGTGTAATTATAATTTCATA | 9.83 ln median PBM intensity, better of two orientations
32 | CACACA_site3424 (dsDNA) DNA 1: GATGAGGACAAACACACACACATAAGTTGATACATA DNA 2: TATGTATCAACTTATGTGTGTGTGTTTGTCCTCATC | 9.89 ln median PBM intensity, better of two orientations
33 | CACACA_site3144 (dsDNA) DNA 1: ATAAAATATATGAAGACACACATAACATCATATTTT DNA 2: AAAATATGATGTTATGTGTGTCTTCATATATTTTAT | 9.52 ln median PBM intensity, better of two orientations
34 | CACACA_site9081 (dsDNA) DNA 1: TTTTACTAAATATATACACACATTATACATATATAT DNA 2: ATATATATGTATAATGTGTGTATATATTTAGTAAAA | 9.49 ln median PBM intensity, better of two orientations
35 | CACACA_site2997 (dsDNA) DNA 1: CATAATTATGCAATTGCACACAACTATCATTTTTTT DNA 2: AAAAAAATGATAGTTGTGTGCAATTGCATAATTATG | 9.61 ln median PBM intensity, better of two orientations
36 | CACACA_site2768 (dsDNA) DNA 1: TAGAACAAATAAAACACACACATATATATATATATG DNA 2: CATATATATATATATGTGTGTGTTTTATTTGTTCTA | 9.9 ln median PBM intensity, better of two orientations
37 | CACACA_site254 (dsDNA) DNA 1: TTTAATTATAAGATAACACACAAAAAAAATAAAATA DNA 2: TATTTTATTTTTTTTGTGTGTTATCTTATAATTAAA | 9.6 ln median PBM intensity, better of two orientations
38 | CACACA_site6321 (dsDNA) DNA 1: AAATTAATTAAATATACACACATATATAGATATATA DNA 2: TATATATCTATATATGTGTGTATATTTAATTAATTT | 9.5 ln median PBM intensity, better of two orientations
39 | CACACA_site478 (dsDNA) DNA 1: AAAAAAAAAAAAAAAACACACAAATCATAAATAAAT DNA 2: ATTTATTTATGATTTGTGTGTTTTTTTTTTTTTTTT | 9.63 ln median PBM intensity, better of two orientations
40 | CACACA_site1529 (dsDNA) DNA 1: AACTATAAAAAAAATACACACATTACCAAAAATATA DNA 2: TATATTTTTGGTAATGTGTGTATTTTTTTTATAGTT | 9.86 ln median PBM intensity, better of two orientations
41 | CACACA_site4748 (dsDNA) DNA 1: GCCTTTTAGTATTTCACACACGTAAATGAGTATATC DNA 2: GATATACTCATTTACGTGTGTGAAATACTAAAAGGC | 9.63 ln median PBM intensity, better of two orientations
42 | CACACA_site3507 (dsDNA) DNA 1: TATATAAACCCGTACACACACATATATGTATATATA DNA 2: TATATATACATATATGTGTGTGTACGGGTTTATATA | 9.93 ln median PBM intensity, better of two orientations
43 | CACACA_site4213 (dsDNA) DNA 1: GGAATAGTAATATATACACACAAATACAGATATATA DNA 2: TATATATCTGTATTTGTGTGTATATATTACTATTCC | 9.83 ln median PBM intensity, better of two orientations
44 | CACACA_site2570 (dsDNA) DNA 1: AAAAGATAATTATGCACACACACACCCCCACCCAAC DNA 2: GTTGGGTGGGGGTGTGTGTGTGCATAATTATCTTTT | 10.8 ln median PBM intensity, better of two orientations
